B1: Mycobacterium tuberculosis SufS (Rv1464) (enzyme)
chain: GMTASVNSLDLAAIRADFPILKRIMRGGNPLAYLDSGATSQRPLQVLDAEREFLTASNGAVHRGAHQLMEEATDAYEQGRADIALFVGADTDELVFTKNATEALNLVSYVLGDSRFERAVGPGDVIVTTELEHHANLIPWQELARRTGATLRWYGVTDDGRIDLDSLYLDDRVKVVAFTHHSNVTGVLTPVSELVSRAHQSGALTVLDACQSVPHQPVDLHELGVDFAAFSGHKMLGPNGIGVLYGRRELLAQMPPFLTGGSMIETVTMEGATYAPAPQRFEAGTPMTSQVVGLAAAARYLGAIGMAAVEAHERELVAAAIEGLSGIDGVRILGPTSMRDRGSPVAFVVEGVHAHDVGQVLDDGGVAVRVGHHCALPLHRRFGLAATARASFAVYNTADEVDRLVAGVRRSRHFFGRA

Experiments:
SEC-MALS = molecular target: the molecule itself; experiment: SEC-MALS
[1] = molecular target: B1; experiment: crystal structure; details: both partners purified

Row | Binder | stoichiometry N (SEC-MALS) | binding result [1]
1 | B1 | 2 | 
2 | Mycobacterium tuberculosis SufU (Rv1465), tag state not told (natural protein) GSHMVTLRLEQIYQDVILDHYKHPQHRGLREPFGAQVYHVNPICGDEVTLRVALSEDGTRVTDVSYDGQGCSISQAATSVLTEQVIGQRVPRALNIVDAFTEMVSSRGTVPGDEDVLGDGVAFAGVAKYPARVKCALLGWMAFKDALAQASEAFEEVTDERNQRTG |  | binds
